The binders below were run against CD3ε homodimer protein (human, UniProt P07766 23-126, limits assumed) (assay: SPR, immobilized CD3ε homodimer;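 also: biacore T200 surface plasmon resonance at 25 °C, antibody variants flowed as analytes over amine-coupled CD3ε homodimer on a CM4 chip, variant binding amount divided by that of GLS3000 antibody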).
Chain of CD3ε homodimer protein (P07766 23-126 limits assumed): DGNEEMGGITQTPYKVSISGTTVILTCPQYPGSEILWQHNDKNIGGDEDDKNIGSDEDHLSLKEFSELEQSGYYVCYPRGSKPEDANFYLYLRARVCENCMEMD

| Binder | ratio of amounts bound (vs GLS3000) |
| --- | --- |
| GLS3000 L27bE (antibody, name in Kabat numbering, V domains shown, one-arm format as m2) VH: QVQLVESGGGVVQPGRSLRLSCAASGFTFSNAWMHWVRQAPGKGLEWVAQIKAKSNNYATYYAESVKGRFTISRDDSKNSLYLQMNSLKTEDTAVYYCRYVHYGAYYGVDAWGQGTTVTVSS VL: DIVMTQSPLSLPVTPGEPASISCRSSQSEVHSNRNTYLHWYQQKPGQAPRLLIYKVSNRFSGVPDRFSGSGSGTDFTLKISRVEAEDVGVYYCGQGTQVPYTFGQGTKLEIK | 0.17 |
| GLS3000 L27bS (antibody, name in Kabat numbering, V domains shown, one-arm format as m2) VH: QVQLVESGGGVVQPGRSLRLSCAASGFTFSNAWMHWVRQAPGKGLEWVAQIKAKSNNYATYYAESVKGRFTISRDDSKNSLYLQMNSLKTEDTAVYYCRYVHYGAYYGVDAWGQGTTVTVSS VL: DIVMTQSPLSLPVTPGEPASISCRSSQSSVHSNRNTYLHWYQQKPGQAPRLLIYKVSNRFSGVPDRFSGSGSGTDFTLKISRVEAEDVGVYYCGQGTQVPYTFGQGTKLEIK | 0.71 |
| GLS3000 L27bV (antibody, name in Kabat numbering, V domains shown, one-arm format as m2) VH: QVQLVESGGGVVQPGRSLRLSCAASGFTFSNAWMHWVRQAPGKGLEWVAQIKAKSNNYATYYAESVKGRFTISRDDSKNSLYLQMNSLKTEDTAVYYCRYVHYGAYYGVDAWGQGTTVTVSS VL: DIVMTQSPLSLPVTPGEPASISCRSSQSVVHSNRNTYLHWYQQKPGQAPRLLIYKVSNRFSGVPDRFSGSGSGTDFTLKISRVEAEDVGVYYCGQGTQVPYTFGQGTKLEIK | 1.12 |
| GLS3000 L27bI (antibody, name in Kabat numbering, V domains shown, one-arm format as m2) VH: QVQLVESGGGVVQPGRSLRLSCAASGFTFSNAWMHWVRQAPGKGLEWVAQIKAKSNNYATYYAESVKGRFTISRDDSKNSLYLQMNSLKTEDTAVYYCRYVHYGAYYGVDAWGQGTTVTVSS VL: DIVMTQSPLSLPVTPGEPASISCRSSQSIVHSNRNTYLHWYQQKPGQAPRLLIYKVSNRFSGVPDRFSGSGSGTDFTLKISRVEAEDVGVYYCGQGTQVPYTFGQGTKLEIK | 1.19 |
| GLS3000 L27bY (antibody, name in Kabat numbering, V domains shown, one-arm format as m2) VH: QVQLVESGGGVVQPGRSLRLSCAASGFTFSNAWMHWVRQAPGKGLEWVAQIKAKSNNYATYYAESVKGRFTISRDDSKNSLYLQMNSLKTEDTAVYYCRYVHYGAYYGVDAWGQGTTVTVSS VL: DIVMTQSPLSLPVTPGEPASISCRSSQSYVHSNRNTYLHWYQQKPGQAPRLLIYKVSNRFSGVPDRFSGSGSGTDFTLKISRVEAEDVGVYYCGQGTQVPYTFGQGTKLEIK | 0.25 |
| GLS3000 L27bM (antibody, name in Kabat numbering, V domains shown, one-arm format as m2) VH: QVQLVESGGGVVQPGRSLRLSCAASGFTFSNAWMHWVRQAPGKGLEWVAQIKAKSNNYATYYAESVKGRFTISRDDSKNSLYLQMNSLKTEDTAVYYCRYVHYGAYYGVDAWGQGTTVTVSS VL: DIVMTQSPLSLPVTPGEPASISCRSSQSMVHSNRNTYLHWYQQKPGQAPRLLIYKVSNRFSGVPDRFSGSGSGTDFTLKISRVEAEDVGVYYCGQGTQVPYTFGQGTKLEIK | 0.71 |
| GLS3000 L27bW (antibody, name in Kabat numbering, V domains shown, one-arm format as m2) VH: QVQLVESGGGVVQPGRSLRLSCAASGFTFSNAWMHWVRQAPGKGLEWVAQIKAKSNNYATYYAESVKGRFTISRDDSKNSLYLQMNSLKTEDTAVYYCRYVHYGAYYGVDAWGQGTTVTVSS VL: DIVMTQSPLSLPVTPGEPASISCRSSQSWVHSNRNTYLHWYQQKPGQAPRLLIYKVSNRFSGVPDRFSGSGSGTDFTLKISRVEAEDVGVYYCGQGTQVPYTFGQGTKLEIK | 0.26 |
| GLS3000 L27bF (antibody, name in Kabat numbering, V domains shown, one-arm format as m2) VH: QVQLVESGGGVVQPGRSLRLSCAASGFTFSNAWMHWVRQAPGKGLEWVAQIKAKSNNYATYYAESVKGRFTISRDDSKNSLYLQMNSLKTEDTAVYYCRYVHYGAYYGVDAWGQGTTVTVSS VL: DIVMTQSPLSLPVTPGEPASISCRSSQSFVHSNRNTYLHWYQQKPGQAPRLLIYKVSNRFSGVPDRFSGSGSGTDFTLKISRVEAEDVGVYYCGQGTQVPYTFGQGTKLEIK | 0.42 |
| GLS3000 L33A (antibody, name in Kabat numbering, V domains shown, one-arm format as m2) VH: QVQLVESGGGVVQPGRSLRLSCAASGFTFSNAWMHWVRQAPGKGLEWVAQIKAKSNNYATYYAESVKGRFTISRDDSKNSLYLQMNSLKTEDTAVYYCRYVHYGAYYGVDAWGQGTTVTVSS VL: DIVMTQSPLSLPVTPGEPASISCRSSQSLVHSNRNTYAHWYQQKPGQAPRLLIYKVSNRFSGVPDRFSGSGSGTDFTLKISRVEAEDVGVYYCGQGTQVPYTFGQGTKLEIK | 0.85 |
| GLS3000 L27bP (antibody, name in Kabat numbering, V domains shown, one-arm format as m2) VH: QVQLVESGGGVVQPGRSLRLSCAASGFTFSNAWMHWVRQAPGKGLEWVAQIKAKSNNYATYYAESVKGRFTISRDDSKNSLYLQMNSLKTEDTAVYYCRYVHYGAYYGVDAWGQGTTVTVSS VL: DIVMTQSPLSLPVTPGEPASISCRSSQSPVHSNRNTYLHWYQQKPGQAPRLLIYKVSNRFSGVPDRFSGSGSGTDFTLKISRVEAEDVGVYYCGQGTQVPYTFGQGTKLEIK | 0.91 |

Further lines, results first:

| ratio of amounts bound (vs GLS3000) | Binder |
| --- | --- |
| 0.17 | GLS3000 L33D (antibody, name in Kabat numbering, V domains shown, one-arm format as m2) VH: QVQLVESGGGVVQPGRSLRLSCAASGFTFSNAWMHWVRQAPGKGLEWVAQIKAKSNNYATYYAESVKGRFTISRDDSKNSLYLQMNSLKTEDTAVYYCRYVHYGAYYGVDAWGQGTTVTVSS VL: DIVMTQSPLSLPVTPGEPASISCRSSQSLVHSNRNTYDHWYQQKPGQAPRLLIYKVSNRFSGVPDRFSGSGSGTDFTLKISRVEAEDVGVYYCGQGTQVPYTFGQGTKLEIK |
| 0.72 | GLS3000 L33E (antibody, name in Kabat numbering, V domains shown, one-arm format as m2) VH: QVQLVESGGGVVQPGRSLRLSCAASGFTFSNAWMHWVRQAPGKGLEWVAQIKAKSNNYATYYAESVKGRFTISRDDSKNSLYLQMNSLKTEDTAVYYCRYVHYGAYYGVDAWGQGTTVTVSS VL: DIVMTQSPLSLPVTPGEPASISCRSSQSLVHSNRNTYEHWYQQKPGQAPRLLIYKVSNRFSGVPDRFSGSGSGTDFTLKISRVEAEDVGVYYCGQGTQVPYTFGQGTKLEIK |
| 0.83 | GLS3000 L33I (antibody, name in Kabat numbering, V domains shown, one-arm format as m2) VH: QVQLVESGGGVVQPGRSLRLSCAASGFTFSNAWMHWVRQAPGKGLEWVAQIKAKSNNYATYYAESVKGRFTISRDDSKNSLYLQMNSLKTEDTAVYYCRYVHYGAYYGVDAWGQGTTVTVSS VL: DIVMTQSPLSLPVTPGEPASISCRSSQSLVHSNRNTYIHWYQQKPGQAPRLLIYKVSNRFSGVPDRFSGSGSGTDFTLKISRVEAEDVGVYYCGQGTQVPYTFGQGTKLEIK |
| 0.93 | GLS3000 L33M (antibody, name in Kabat numbering, V domains shown, one-arm format as m2) VH: QVQLVESGGGVVQPGRSLRLSCAASGFTFSNAWMHWVRQAPGKGLEWVAQIKAKSNNYATYYAESVKGRFTISRDDSKNSLYLQMNSLKTEDTAVYYCRYVHYGAYYGVDAWGQGTTVTVSS VL: DIVMTQSPLSLPVTPGEPASISCRSSQSLVHSNRNTYMHWYQQKPGQAPRLLIYKVSNRFSGVPDRFSGSGSGTDFTLKISRVEAEDVGVYYCGQGTQVPYTFGQGTKLEIK |
| 0.78 | GLS3000 L33F (antibody, name in Kabat numbering, V domains shown, one-arm format as m2) VH: QVQLVESGGGVVQPGRSLRLSCAASGFTFSNAWMHWVRQAPGKGLEWVAQIKAKSNNYATYYAESVKGRFTISRDDSKNSLYLQMNSLKTEDTAVYYCRYVHYGAYYGVDAWGQGTTVTVSS VL: DIVMTQSPLSLPVTPGEPASISCRSSQSLVHSNRNTYFHWYQQKPGQAPRLLIYKVSNRFSGVPDRFSGSGSGTDFTLKISRVEAEDVGVYYCGQGTQVPYTFGQGTKLEIK |

— patent publication US20220040297A1 (Chugai, published 2022)
